Measurements published in publication PMC11342335.
pKd: −log10 of the molar value.

Legend:
Assay in all cases: SPR; Biacore 8K, affinity determination of second-generation constructs; 30-100 RU of ABD035-containing constructs captured on immobilised HSA (CM5); 1-200 nM human sortilin injected 180 s at 30 µl/min, 25°C, PBST; 60 min dissociation; 1:1 Langmuir fit; apparent constants; n=3 technical replicates
[1] = target: A3-ABD (His6-A3-G4S-ABD035)
[2] = target: ABD-A3-(G4S)3-NTC3 (His6-ABD035-G4S-A3-(G4S)3-NTC3)
[3] = target: ABD-A3-(G4S)3-PGRNC3 (His6-ABD035-G4S-A3-(G4S)3-PGRNC3) (human)
[4] = target: ABD-A3-(G4S)3-PGRNC6* (His6-ABD035-G4S-A3-(G4S)3-PGRNC6*) (human) (UniProt P28799)

Sequence of human sortilin (R&D Systems, 3154-ST) (Q99523 78-755): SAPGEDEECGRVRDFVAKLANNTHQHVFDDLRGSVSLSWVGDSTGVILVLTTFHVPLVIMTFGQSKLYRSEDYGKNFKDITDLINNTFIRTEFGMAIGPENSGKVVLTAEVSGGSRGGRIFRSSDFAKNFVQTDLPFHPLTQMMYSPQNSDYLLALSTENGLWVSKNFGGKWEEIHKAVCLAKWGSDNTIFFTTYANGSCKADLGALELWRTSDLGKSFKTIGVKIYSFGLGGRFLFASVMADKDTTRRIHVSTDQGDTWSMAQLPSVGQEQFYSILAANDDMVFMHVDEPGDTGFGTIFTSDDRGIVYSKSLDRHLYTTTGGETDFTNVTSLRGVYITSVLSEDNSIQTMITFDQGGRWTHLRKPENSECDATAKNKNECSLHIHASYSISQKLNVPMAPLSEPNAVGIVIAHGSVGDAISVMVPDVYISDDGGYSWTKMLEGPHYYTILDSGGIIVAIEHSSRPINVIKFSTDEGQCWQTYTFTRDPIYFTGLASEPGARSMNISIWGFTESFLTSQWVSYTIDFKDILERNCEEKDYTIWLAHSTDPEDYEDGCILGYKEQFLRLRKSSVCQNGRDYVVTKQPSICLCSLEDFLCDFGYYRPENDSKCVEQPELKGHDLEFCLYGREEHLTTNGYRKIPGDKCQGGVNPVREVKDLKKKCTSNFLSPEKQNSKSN

human sortilin (R&D Systems, 3154-ST) (from UniProt Q99523 78-755) (receptor)
pKd [1]: 7.15
pKd [2]: 9.52
pKd [3]: 9.51
pKd [4]: 9.50
